The source of these data is US20160061835A1 (BAYLOR COLLEGE OF MEDICINE, published 2016).

The target in this assay is T1, Norwalk virus (NV) virus-like particle (Norwalk virus (genotype GI.1), UniProt Q83884 1-530; Q83885 1-212).
T1 construct: also called NV-VLP; NV-VLPs
T1 sequence 1: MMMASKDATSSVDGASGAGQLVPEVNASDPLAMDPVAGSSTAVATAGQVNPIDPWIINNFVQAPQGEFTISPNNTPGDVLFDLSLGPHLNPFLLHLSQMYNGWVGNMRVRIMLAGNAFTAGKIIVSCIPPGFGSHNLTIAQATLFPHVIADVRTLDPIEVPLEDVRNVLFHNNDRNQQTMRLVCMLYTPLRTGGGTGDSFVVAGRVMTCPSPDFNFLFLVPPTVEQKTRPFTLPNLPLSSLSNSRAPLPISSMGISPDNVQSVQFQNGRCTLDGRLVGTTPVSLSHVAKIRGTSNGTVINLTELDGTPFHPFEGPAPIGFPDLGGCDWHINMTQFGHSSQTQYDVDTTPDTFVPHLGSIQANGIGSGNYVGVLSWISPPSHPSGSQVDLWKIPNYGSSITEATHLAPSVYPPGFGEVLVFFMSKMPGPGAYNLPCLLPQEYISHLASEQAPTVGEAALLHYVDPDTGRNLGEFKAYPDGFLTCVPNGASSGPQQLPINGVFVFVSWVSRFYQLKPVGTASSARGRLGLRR
T1 sequence 2: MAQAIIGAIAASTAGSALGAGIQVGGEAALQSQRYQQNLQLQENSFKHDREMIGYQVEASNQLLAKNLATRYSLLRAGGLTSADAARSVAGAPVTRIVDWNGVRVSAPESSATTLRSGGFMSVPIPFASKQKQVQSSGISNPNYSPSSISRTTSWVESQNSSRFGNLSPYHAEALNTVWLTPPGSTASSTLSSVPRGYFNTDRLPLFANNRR
The assay is described as follows: capture ELISA: NV-VLP captured by immobilized polyclonal antibody, M13 phage antibody detection. For orientation: An ELISA detects its analyte on a solid surface through an enzyme-linked reagent.

B1: non-peptide displaying M13 phage (other)
chain: AETVESCLAKPHTENSFTNVWKDDKTLDRYANYEGCLWNATGVVVCTGDETQCYGTWVPIGLAIPENEGGGSEGGGSEGGGSEGGGTKPPEYGDTPIPGYTYINPLDGTYPPGTEQNPANPNPSLEESQPLNTFMFQNNRFRNRQGALTVYTGTVTQGTDPVKTYYQYTPVSSKAMYDAYWNGKFRDCAFHSGFNEDPFVCEYQGQSSDLPQPPVNAGGGSGGGSGGGSEGGGSEGGGSEGGGSEGGGSGGGSGSGDFDYEKMANANKGAMTENADENALQSDAKGKLDSVATDYGAAIDGFIGDVSGLANGNGATGDFAGSNSQMAQVGDGDNSPLMNNFRQYLPSLPQSVECRPFVFSAGKPYEFSIDCDKINLFRGVFAFLLYVATFMYVFSTFANILRNKES
notes: Whole phage particle used as negative control; also called M13 control phage
For B1, the binding result was “no binding”.
